# In publication PMC11724882, “Molecular basis for the enzymatic inactivity of class III glutaredoxin ROXY9 on standard glutathionylated substrates” (Nature Communications, 2025):
# Values joined by “and” are separate entries in the source; they are usually repeats but may differ in a detail not shown here. Identical values can stand only once.
# B1: strep-MBP-ROXY9 (enzyme, Arabidopsis thaliana, UniProt O82255 1-102, looked up)
# chain: MDKVMRMSSEKGVVIFTKSSCCLCYAVQILFRDLRVQPTIHEIDNDPDCREIEKALLRLGCSTAVPAVFVGGKLVGSTNEVMSLHLSGSLVPLIKPYQSILY
# notes: class III glutaredoxin ROXY9, Arabidopsis thaliana, AT2G47880; ORF inserted into a variant of MacroLab vector 438-C (modified pFastBac, Addgene plasmid 48296) in which the His-tag was exchanged for Strep-tag II; a TEV site lies between the tag and ROXY9; also called class III GRX ROXY9; CEPD2; source: Hi5 insect cells (baculovirus), purified (MBPTrap, eluted with maltose, 5 mM GSH in buffer)
# Columns and labels:
# Cys23 [1] = target: Cys23 (UniProt position 23, FSKTYCPYCVR); assay: chemical modification; details: buffers at a normality of 0.1; no added salt stated; citrate pH 2.0-6.0; KH2PO4/Na2HPO4 pH 6.5-8.0; Na2B4O7 pH 8.5-10.0. Protein was desalted into 5 mM HEPES pH 7.0. 10 µl protein was mixed with 40 µl pH buffer and 5 µl 100 mM IAM.; Pre-reduced with 10 mM DTT and desalted; no glutathione or other ligand; native protein during the IAM step.
# Cys23 [2] = target: Cys23 (UniProt position 23, FSKTYCPYSVR); assay: chemical modification; details: buffers at a normality of 0.1; no added salt stated; citrate pH 2.0-6.0; KH2PO4/Na2HPO4 pH 6.5-8.0; Na2B4O7 pH 8.5-10.0. Protein was desalted into 5 mM HEPES pH 7.0. 10 µl protein was mixed with 40 µl pH buffer and 5 µl 100 mM IAM.; Pre-reduced with 10 mM DTT and desalted; no glutathione or other ligand; native protein during the IAM step.
# Cys21 [3] = target: Cys21 (UniProt position 21, FTKSSCCLCYA); assay: chemical modification; details: buffers at a normality of 0.1; no added salt stated; citrate pH 2.0-6.0; KH2PO4/Na2HPO4 pH 6.5-8.0; Na2B4O7 pH 8.5-10.0. Protein was desalted into 5 mM HEPES pH 7.0. 10 µl protein was mixed with 40 µl pH buffer and 5 µl 100 mM IAM.; Pre-reduced with 10 mM DTT and desalted; no glutathione or other ligand; native protein during the IAM step.
# Cys21 [4] = target: Cys21 (UniProt position 21, FTKSSCSLSYA); assay: chemical modification; details: buffers at a normality of 0.1; no added salt stated; citrate pH 2.0-6.0; KH2PO4/Na2HPO4 pH 6.5-8.0; Na2B4O7 pH 8.5-10.0. Protein was desalted into 5 mM HEPES pH 7.0. 10 µl protein was mixed with 40 µl pH buffer and 5 µl 100 mM IAM.; Pre-reduced with 10 mM DTT and desalted; no glutathione or other ligand; native protein during the IAM step.
# Cys22 [5] = target: Cys22 (UniProt position 23, FIKPTCPFARK); details: cited from earlier work
# Cys22 [6] = target: Cys22 (UniProt position 23, FIKPTCPFSRK); details: cited from earlier work
# Cys22 [7] = target: Cys22 (UniProt position 23, FIKPTCPFCRK); details: cited from earlier work
# [8] = target: the molecule itself; assay: SEC; analytical gel filtration of the affinity-purified strep-MBP fusion proteins (purified in the presence of 5 mM GSH); strep-MBP-ROXY9 also after DTT treatment
molecule,measurement,setting,value
"Glutaredoxin GRXC2 (class I GRX), strep-MBP fusion, wild type (Arabidopsis thaliana)",pKa,Cys23 [1],between 3.0 and 3.5
"Glutaredoxin GRXC2-CSS variant (only CysA retained), strep-MBP fusion (Arabidopsis thaliana; C26S;C80S)",pKa,Cys23 [2],between 3.5 and 4.0
"Glutaredoxin ROXY9 (class III / CC-type GRX, CEPD2), strep-MBP fusion, wild type (Arabidopsis thaliana)",pKa,Cys21 [3],between pH 4 and 4.5
"Glutaredoxin ROXY9 single-cysteine variant (only Cys21 retained), strep-MBP fusion (Arabidopsis thaliana; C22S;C24S;C49S;C61S)",pKa,Cys21 [4],between 6 and 7
Pig glutaredoxin (liver thioltransferase) C25A (Sus scrofa; C25A),pKa,Cys22 [5],5.9
Pig glutaredoxin (liver thioltransferase) C25S (Sus scrofa; C25S),pKa,Cys22 [6],4.9
"Pig glutaredoxin (liver thioltransferase), wild type (Sus scrofa)",pKa,Cys22 [7],3.8
B1,stoichiometry N,[8],2 and 3
